Tested on: K4 kissing-loop RNA reporter
Assay: apparent KD of K4 kissing-loop reporter; higher = weaker reporter binding
Settings: Eterna round: R107; input ligand: arginine 13.2 mM
Protocol: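 RNA-MaP round R107: designed RNA switches with theophylline, tryptophan, arginine or FMN aptamers are transcribed on-chip within common flanks. They are titrated with a labelled K4 kissing-loop RNA reporter in RNA-MaP buffer (100 mM Tris pH 7.5, 80 mM KCl, 4 mM MgCl2), without ligand or with the indicated ligand. Median apparent KD per design.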
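Also: bound reporter read as fluorescence of individual clusters on recovered sequencing chips by microscopy, with normalized cluster intensities fitted with a binding model.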

Going from “CCAUCGCUAUUCGAUACCAGCUCCUUAGUGAUGUUGAGGUUUUACCCACUGUAGGUGGGAAGCCCUUGGCAGCGAAUAGUGAUGG [Theophylline B K4 29]” to “CUUCGUAAAGGCCCAGUGAUGUUGGGCACUCGAGGACCGGUACGGCCGCCACUCGCUCCCUAAGUCGCGUGCGUGGGCCACCGCC [Anala]”, the “apparent KD of K4 kissing-loop reporter” value falls from 0.217 µM to 0.097 µM (2.2-fold).

First: UGACUGGACUGAAGGAGCGCUUAACUCCUAGUGAUGUUAGGGAAACGAGACAAAGUCUCGAAGCAGGUAGGUCGCAGUCUAGUCU
Second: AAAAUAAAAGGUCACCCAGUGAUGUUGGAAGGAGCGUGCGAAAGCACAGGUAGGUCGCCAACCUAAAAGUGACCAGGGAAACCCA [#SwitchBubble 7 #K4Early]
The “apparent KD of K4 kissing-loop reporter” value of the first is 1.5-fold lower: 0.164 µM for the first, 0.253 µM for the second.

First: UCACUUAAAAGAAAUAGAAAUUCUAGAGAUACCAGCGACACUCUUCGCCCUUGGCAGCUCAAGUGGGACCCAGUGAUGUUGGGCG [Xeceteza]
Second: CUGACGCUGAUACGGUGGCCGGUGGUCGUGCGAGGACCGGUACGGCCGCCACUCGCAUGAGUGAUGUUCAUGUGUCGUCGUCGUC [#05 K4 Tryptophan A Exclusion]
The “apparent KD of K4 kissing-loop reporter” value of the first is 3-fold higher: 0.289 µM for the first, 0.0959 µM for the second.

Same assay, conditions: Eterna round: R107; input ligand: none

“UGGAGUUGACGAAAAGUCAACUCCCGAGAAGGAGCGGACGAAAGUCCAGGUAGGUCGCUCGCUACCAGUGAUGUUGGUACUUUAA” and “AUCGUUGUCUGAGGAUAUCGGUUAACUGUAGUGAUGUUACAGAAAAUUCAUAUUAUAUUUUCUAUUCGAGAAGGCAGACUACGUA [JR_Nu3_ExcFMNB_Sub019]” are within 1.5-fold of each other in “apparent KD of K4 kissing-loop reporter” value: 0.174 µM for the first, 0.16 µM for the second.

Compared with “CGUUGGAGUGAUGUUCCAGGUUGUACGGAUACCAGCCAAGCCAGCGGCCCUUGGCAGCCGACUAUUGCAGUGAUGUUGUGAUGCC [Same State Theophylline A GF 3]”, “AUUCAGAUCUGAAGGAGCGCGUUAAGUCAAUGCUUCAUAGAGCAGUGAUGUUGCUCUGAAACGCAGGUAGGUCGCAGAUCUGACC [Arg B SS t17]” is 2.3-fold lower in “apparent KD of K4 kissing-loop reporter” value: 0.751 µM for the first, 0.325 µM for the second.

“AUCACAGUGAUGUUGUGAUAUGAUUCAGAUACCAGACUAGUGCUAGUCCCUUGGCAGCUGAACUCAGCAGCACCACUAGCACUCU [Theo A Ex t6]” and “GCUAGCAUGGCAGGAUAUAGCUAUAGGAGUGAUGUUCCUUGGUAGGUGAGUGAUGUUCACUACCAACUAGAAGGGCCAUGCUAGC” are within 1.5-fold of each other in “apparent KD of K4 kissing-loop reporter” value: 0.148 µM for the first, 0.125 µM for the second.

“AGGUCACCAGGAAGGAGCGCCCUGACAGGUUGCUGCCGUGGGCAGUGAUGUUGCUCAGUCCGGCAGGUAGGUCGCCUGGUGACCU” and “ACACGUGUGGCAGGAUAUCGGGCUGUGGAUCGGCUGGUUACUUAUUCUCGACCAGUGAUGUUGGUACGAGAAGGGCUACCCAGAA [Cetebera]” are within 1.5-fold of each other in “apparent KD of K4 kissing-loop reporter” value: 0.154 µM for the first, 0.139 µM for the second.

Compared with “AAGCAGUCACUCGAAACCAUCGAAGAUGGACGAGGACCGGUACGGCCGCCACUCGGAGUGAUGUUCCGAAGACUGCAAAAUAAAA”, “UGCAGUGAUGUUGCUAUUUGUCUUGAUUAACGAGGACCGGUACGGCCGCCACUCGAUUUCUCUCUAAUCGGGUAUGUUGUUUAGU [#20 K4 Tryptophan A Exclusion]” is 2.2-fold lower in “apparent KD of K4 kissing-loop reporter” value: 0.374 µM for the first, 0.17 µM for the second.

First: UAAGUAAGGGAUGAUACCAGAGAGUGAUGUUCUCAAGCGCUAUAGGAUAGCCUUAUCCACCUCCCUUGGCAGCAUACCCACUGGG [theeternabot_exclusion_KL_Theo_B_13]
Second: UCCUGCAAUCAGCCACGAAAGUGGAUGGAUACCAGAGUCGAAAGACUCCCUUGGCAGCCAGUGAUGUUGGAAGCAGGUAAAUAAA
The “apparent KD of K4 kissing-loop reporter” value of the first is 2.1-fold lower: 0.355 µM for the first, 0.761 µM for the second.

“UGUGUUGUUUUGAUGUUUGGUGUUGCAUGGCAGGAUAUCGUAGAGGCGAGAAGGGCUUUUGUGCGGUAUGAGUGAUGUUUGUAGG [iihymullin]” and “CGAGUGAUGUUCGUUCGUUUAUUUUUUUGACAGGAUAUGCGGAAACGCAGAAGGGUCACCUUUGAGUUAAAAGAAUUUACGUUAU [Ex FMN A 25]” are within 1.5-fold of each other in “apparent KD of K4 kissing-loop reporter” value: 0.509 µM for the first, 0.576 µM for the second.

Going from “AGAUGUCCCUGGGAUACCAGUCGGAGUCUCAGGGCUCGGAGUGAUGUUCUGGGAUGUUUCGGCCCUUGGCAGCCCUGGGACUCCC [#2 Exclusion - Theophylline B Attempt #26 (HarryS)]” to “AGUCCACUCUAAAGAGUGGACCUAAGGGAUACCAGUGAUGUUGGUCACCCUUGGCAGCCCUCUGUCAUCGAUAAAGAUGGCAGCA”, the “apparent KD of K4 kissing-loop reporter” value falls from 0.908 µM to 0.136 µM (6.7-fold).

Compared with “GGAUAGGAUAGAGGAUAUGGUAUAUGCAAGAAUAACUUAUCGUGUAAAUCCAUAGGGAGUGAUGUUCCAGAAGGCUGUCCUAUCG [MatMod 11 - Jieux - Exclusion - FMN B]”, “GCUAUGGUUGGAAGGAGCGUUUAAUUACUAAUAAGAGUGAUGUUCGAUAGUAGGUAAUUGUAGCAGGUAGGUCGCCAACUAUAGC [KL-Arg B25]” is 1.7-fold lower in “apparent KD of K4 kissing-loop reporter” value: 0.308 µM for the first, 0.186 µM for the second.

“CGAGUGAUGUUCGUUCGUUUAUUUCGUUGACAGGAUAUGCGGAAACGCAGAAGGGUCACCUUUGAGUUAACGGAAUUAACGUUAU [Ex FMN A 28]” and “UGUCAUUGGUCGGCCGCCACUAGACGGACAUAAGUCUGUCAAUAAAGAGUGAUGUUCUUAAAUAAUAGGACCGGGACCGAUGACU [TrypBS 28 #SwitchBubble #StaticStem]” are within 1.5-fold of each other in “apparent KD of K4 kissing-loop reporter” value: 0.544 µM for the first, 0.451 µM for the second.

First: UGUACCGAGUCAGGAUAUGGCGUCGAAAGACGAAAUGGAGUGAUGUUCCUUAUCUGCGAAAGCAGUCCAGAAGGGACUUGGUACU [FmnBS 27 #SwitchBubble #StaticStem #DoubleMagnetSystem]
Second: GGAUAGGACAGAGGAUAUGGUAGUGAUGUUACCAAACUGGUUAUCAAUGUUAGAAAAUUGACAAAUCCAGAAGGCUGUCCUAUCG [KL-XFMN-B14]
The “apparent KD of K4 kissing-loop reporter” value of the first is 2.1-fold higher: 0.137 µM for the first, 0.0664 µM for the second.
